Experimental data: a protein production outcome set (Wang et al. 2014)

Test: label from the status in PepcDB records
In the case of “MTQWASWKQAIVSLAMLVSFSLFGQQNVQTPPEVVQARFIGNETCIDCHQVEVEAWQGSHHDMAMRHADSESVLGNFDNQAVEHQGKANRFYRKGDEYWVNIQGPDGQWHDYKISYTFGWVPLQQYMVEFDDGRIQLIPFAWDSRSVEQGGQRWFHLYPDTTTTDEFYWTNTGQNWNFMCADCHSTNLKKNYDAQSNTYQTTWSEINVSCEACHGPASLHVEMAKQAKQNGMPIATANHYGFSRDLSAAVKEWVYKEGHSTLQPKDIVPTNQVQTCAQCHSRRTQLNEEADHVKGAFLDKYRLSLITPELYYHDGQIYDEDYVYGSFLQSAMAEKGVTCTNCHDPHSAQLKIPEEAVCAQCHVASDYLPENHTFHQANTEASKCTTCHMPETTYMQVDPRRDHSWHVPRPDLSKHINTPNVCTACHDDKDAKWADEQIGQWFPKSKYRNTQHFSVAFYADAIGHRGGSDALAYTAQDSSISDIIRASALERMAGNTGQNTLVALARAVKHENEMIRLGAVAGSAGYDFSDRWQILQPLLSDPVLSVRTEAAAALVSHYGEMNPLQRERIQKPLDEYMDIQRFNADRGFGRTNLANVYRSLGEASKAIELYQQAIDIEPYFENSYVNLADMYRRQGDEAKAVQILNAGMKAQPKSSSLPYSAGLALLRQGNSKQANQYLKQAAESAKDNAQYWYVYGLALEKSDVLEASKALNKAFEVGGDPRHLYAQCEVLARNYRQGGVAFAFEQCTKQLGAHAPEEVIQQLKATVTTKK”, the protein production was “failed”. With “MTRAKDRLSAVQVKQSPAGKYADGGGLWLVKSSKDTGKWVLRAVVHGRRREMGLGSVSDVGLAEARKSADKWRTVVRAGGDPIKERARQKREAARNLHLLKHVAEDCFDAIKGNLRGQGKAGRWFSPLELHVLPKLGKVPVADLDQVDIRDTLKPLRDTKFETMRKALNRLDMVVRHAAALGLDVDTQVVDKAKALIGASQHKAVNIPAMPWHEVPGFYQSLSVGSVTHLALRLLILTGVRSRPLRFLRVDHIAGDVWTIPADMMKGREGATGDFRVPLSKEALAVIEQAKRHARDGFLFPSLRRGVVSDMTLSRYMERRKLTARPHGFRSSLRDWLAECTDAPHEVAETVLGHKVGGAVERAYRRTDFIDQRAKLMERWADHCKVVQLVSAV” the protein production was “failed”. With “MTRDLAPALQALSPLLGSWAGRGAGKYPTIRPFEYLEEVVFAHVGKPFLTYTQQTRAVADGKPLHSETGYLRVCRPGCVELVLAHPSGITEIEVGTYSVTGDVIELELSTRADGSIGLAPTAKEVTALDRSYRIDGDELSYSLQMRAVGQPLQDHLAAVLHRQR” the protein production was “not failed”. For “MTRKQMKTLVNRLFIISTFLLTSVQSYANFIDISEQQINQYLATKLTEKFRMQDQIGIPGLFQLNYHLHNLTTQIGRTDANKVSLSGIIDGVLLLKGKSYDAQLNLNIDTTPYYDTKTGKLYLKDIRLLNYSASPEKYQDKLQAFLPLLVDGLSKMLNNTPIYTLDENKTQEALLKKFGKAIVIEQGKLSLQTALF”, the protein production was “failed”. In the case of “MTRLAFVRKKEKNCGQCRICEVSCPMGIETENAEKYKGECISCIKCVEICPRYNMQLNFANQPVNPRYTSSLTVAGLFAVFSALSFLPSAKKIDTAKYNAIPSFADEDYQTDEENENINSSDNKQVETQQDYQAEIAQNNSQEANTSQNQISDQAQENAMTSKYQQNQSAAESYNSTETNQKSANVQSKTFEQAAENSQKTSLEKSQGSVQNSTYPVSSSNSSDESQQENVQANLSNATETSTQNFKVSNNTSETPKGISKIYKDGTYTGEGFGYRPGLVVEVTIKDDKITKIKIVSHNETQSFAQLPFEIIPQEIIQNQSTNVDIVSGATRTSYGIIMAVEDALNKAKIENESSLQN”, the protein production was “failed”. In the case of “MTRNRRRIAFAAILAMATTAHAQQGQVLTTQDEIGGVYEGTFRGGLQHGTGTYRLPNGYEYSGEWVDGEIRGRGVARFPNGSVYEGSFAQGKPEGMGKITFSDGGTYEGEWSNGVINGQGVAVYANGVRYEGGFRDARHHGKGVMQSPGGYVYEGDWADGQKEGLGKITYPDGAVYEGGIVAGQRHGEGTLTLPDGLVYVGFWADGQINGKGTLTQANGDVYEGDLIAGRREGKGKVTYANGDVYQGDFTDDRREGQGIFTGTDGYSYAGSWVAGQIEGQGRVTYPDGSVYEGNFRADLADGQGKITYPDGSSYEGEWVAGVIEGTGTAIYANGIVYKGTFKNAKNHGQGVMTYADGYRYEGEWQDGVRHGQGKATYPDGSVYTGQYVNGQREGDGEIVMADGFRYKGQWQSGKISGIGVATYANGDIYEGHFRNGKRQGEGTMKYASGQEEKGNWDNGALTKGAAASDG”, the protein production was “failed”. In the case of “MTRPLRWWKRACPGAALRRDVNAFPPPSLAKLSAVFTIRRQPELDRRPQGASAGGALQALIAALPFALRPSRLSRQAKRPWTRACRRRLPATVGAGSLAAMDSAQPNTAAARYKSFAAFYPFYMTEHANPVSRRLHVVGTSLVIVCLVLGVFRDWRFFIAAPVIGYGFAWIGHFVFEKNRPATFKYPVYSLMGDFRLWFETVTGRRKF”, the protein production was “failed”. In the case of “MTRPMPESIDERIKAALSKRGIDELYTHQYSAFQYVQKGESIVTVTPTASGKTLCYNLPVLQSIAQDETNRALYLFPTKALAQDQKSELNEIIDEMGIDIKSFTYDGDTSPAIRQKVRKAGHIVITNPDMLHSAILPHHTKWVSLFENLKYIVIDELHTYRGVFGSHVANVIRRLKRICRFYGSDPVFICTSATIANPKELGEQLTGKPMRLVDDNGAPSGRKHFVFYNPPIVNKPLNIRRSATAEVNELAKEFLKNKVQTIVFARSRVRVEIILSHIQELVKKEIGTKSIRGYRGGYLPKERREIERGLREGDILGVVSTNALELGVDIGQLQVCVMTGYPGSVASAWQQAGRAGRRHGESLIIMVANSTPIDQYIVRHPEYFFNRSPESARINPENLIILVDHLKCAAYELPFRADEEFGAMEVSDILEYLQEEAVLHRNGERYHWASESFPASNISLRSASQENVVIVDQSDIANVRIIGEMDRFSAMTLLHDEAIYLHEGVQYQVEKLDWDHKKAYVRKVDVEYYTDANLAVQLKVLEIDKTKEKSRTSLHYGDVTVNALPTIFKKIKMTTFENIGSGPIHLPEEELHTSAAWLEIKTADEDIGEKTLEQLLLGISNVLQHIVPVYIMCDRNDVHVVSQIKAAHTGLPTIFLYDHYPGGIGLAEEVFKRFSDINEAAKQLITHCPCHDGCPSCIGTEIEGIKAKERILQLLDQMSLEHHHHHH”, the protein production was “not failed”. With “MTRSEQNPVLFLAPDNVLWLLYTAQKSGNQDTAIVRYRQSTDLGATWGEIGTLLDQPGTFIRQPITVLENGDWLLPVFYCRVQPGEKWVGNDDDSAVKISSDQGKTWREYPVPNSTGCVHMNITPLQDGTLLALYRSRWADFIYQSRSTDGGKTWSEPVATDLPNNNSSIQVTTLKNGHLALVFNHMSAADATDRRLSLYDEIEDEEDKASGAKMPEVQAGDRSAFWGAPRAPMTLAISEDGGKSWPYQRNIEVGDGYCMTNNSTEKLNREFSYPSVKQAPDGKLHVAFTYFRQAIKHVVVSEEWVKAGLEHHHHHH” the protein production was “failed”. For “MTRSQTRPRRQALAEILGLMGLLVAGGLLAGQGGQTLARSVGGLGGASAPMPSRPWHGSNHTPLPSRGDGMAALDHNLITAASIGDLDLVNRLLKAGASAQATDERGRTALLAAVYNRRGDVMLVLIQAGADVNRKDDEGNSPFLLAAATNQIDVVRLALSHGADLNSTDRYDGTALIAASQHGNVEIVKLLISAGVPVDRVNQLGWTALLEAIILGDGSSRYEDIVQALLDAGADANLADREGVTPSRHARERGYKTMVRMLMRARGH”, the protein production was “failed”. For “MTRSSNIPADATPNPHATAEQVAAARHDSKLAQVLYHDWEAENYDEKWSISYDQRCVDYARGRFDAIVPDEVIAQLPYDRALELGCGTGFFLLNLIQAGVARRGSVTDLSPGMVKVATRNGQALGLDIDGRVADAEGIPYDDDAFDLVVGHAVLHHIPDVELSLREVVRVLKPGGRFVFAGEPTTVGDGYARTLSTLTWRVVTNATKLPGLRGWRRPQGELDESSRAAALEALVDLHTFTPQDLQRIAHNAGAVEVQTATEEFTAAMLGWPLRTFECTVPPGRLGWGWARFAFTSWKTLGWVDANVWRHVVPKGWFYNVMITGVKPS”, the protein production was “failed”. In the case of “MTRTEYLAELDKYLRKLPREDYHEAMEYYIEYFDEAGPDKESQVIDDLGNPKEAASEIISNVLGKHLATPEKTPKNRATIIGLTILSLFAAPIALPVLLALILFIIACLMLGLTAIFAAYIFGLAGILVAGVTLFESLTLIGSSIPAQAMGIGSALLCFGGGLLIWIIATAFLRFSGRAFVAFIKWISNKKGAQA”, the protein production was “failed”. For “MTRVDVVTRTLPPNEVSEANPWDTDRFWTVPNVLSVIRLIGVPIFLWLALGPRADGWAVAVLAVAGLTDWLDGRIARRWHQVSRIGQMLDPVADRLYIFATVIALTLRDVIPLWLVIVLIARDVCMACLMPALRTRGFTSLPVHFVGKAATFCLLYSFPLVLLGRFGTGGWTACRVLGWAFAVWGTGLYWWAFFLYLVQTIRIVRTLPRISSRGEYS”, the protein production was “failed”. With “MTRYGLRARVITLTLAPTLIIGLLLSGFFSFNRYQDLEKQVITTGNSIIEPLAIASESHLLAESREAVRRLISYAHRKNSKLVRSIAVFDEHHELFVTSNFHPNFEALMFPKDKPIPKLGNSEIYENSLILRVPILSEGHYLSELSNENQGTKAIGYIAVEMDLSSLRLQQYQEVFSAFLVLILGLGLASVFASRLMHDVTQPITHMKNVVDRIRRGHLDVRIEGKMHGELDQLKNGINAMAVSLSEYHVEMQHSIDQATSDLRETLEQLEIQNVELDIAKKRAQEAARVKSEFLANMSHELRTPLNGVIGFTRQMLKTQLSNSQTDYLQTIEKSANNLLNIINDILDFSKLEAGKLALENIPFDFRESLEEVINLQATSAHEKGLEITLKVDPKIPPGLVGDPLRIQQILTNLVGNSIKFTERGNIDVSVEMRSQAGDSVELQFMVRDTGIGISERQQAQLFQAFSQADASISRRYGGTGLGLVITQKLVSQMGGEISLTSRLHQGSTFWFTLRLNSTEMPMSDLIEVELLTGKQLLLVEPNMQAASVTQQILSQEGILVTYRSSLPENEEHYDYVLLNLAANQTYDEQSVAAWIEQAKRMAPSVIMGTPSTELALADQIMTEHQIQCLTKPLSRRKLLQSLINEHVEAPQAITAPVETEESERLPLTVLAVDDNPANLKLISALLKERVETVTACSNGQQAVNLATEKKYDLIFMDIQMPLMDGVTACQNIKELELNKDTPVIAVTAHAMAGERDRLLAAGMDDYLTKPIEEHVLQQVLVHWNPNTCTESIGKVAPSYVDEPESEAPATAENTQPDVIIDWQAALKQSANKEDLAKDMLRMLIDFIPEVEEVVDHALEQDDYSREELIHVIHKLHGSSSYCGVPRLKSLCATLEHALRSGASIEEIEPEMFELQDEMIKVTTTAKLYLEQ” the protein production was “failed”. For “MTSAQKPVFSPSDLQTWLEIATEAVLAAGAEIFSLWGKVQQIQEKGRAGDLVTEADRQAEAIILEIIKRRCPDHAILAEESGQLGQVDNPFCWAIDPLDGTTNFAHSYPVSCVSIGLLIQDIPTVGVVYNPFRQELFRAATSLGATLNRRPIQVSTTASLDKSLLVTGFAYDRVKTLDNNYPEFCYLTHLTQGVRRSGSAAIDLIDVACGRLDGYWERGINPWDMAAGIVIVREAGGIVSAYDCSPLDLSTGRILATNGKIHQELSQALAATPQWFQQYAAARAQKI”, the protein production was “failed”. With “MTSFEDADTEETVTCLQMTVYHPGQLQCGIFQSISFNREKLPSSEVVKFGRNSNICHYTFQDKQVSRVQFSLQLFKKFNSSVLSFEIKNMSKKTNLIVDSRELGYLNKMDLPYRCMVRFGEYQFLMEKEDGESLEFFETQFILSPRSLLQENNWPPHRPIPEYGTYSLCSSQSSSPTEMDENES” the protein production was “failed”. In the case of “MTSFLSFSAISAHPPTFSGASFRPRSFSPRLFKSCVKCTYAEAGLSSASWSAPIDIVADVKSERVVVLGGNGFVGSAICKAAISNGIEVVSVSRSGRPNFEDSWLDQVTWVTGDVFYLNWDEVLLGATAVVSTIGGFGNEEQMKRINGEANVTAVNAAKDFGVPKFVLITVHDYNLPPFILSNGYFTGKRNAEAELLSKYPTSGVVLRPGFIYGKRKVNGIEVPLDLVGEPLDKIYDSAERFIRPLRSLPASDLILAPPVNVDDLALAVINAVKDDDFFGIFTIEQIKEAAAKMRA”, the protein production was “failed”. With “MTSGGNSIEPSVVAEAEKMLFCYQYDQTITISITSSADPCPLCNGGFLDEYVDPNPNPIPNLILPMSDPISSRFSFIPVMDFTNPSFLGESMEPQSTQQQLNAFDPNQLSDQANPLAGNHGDYFFGRGLEDLI” the protein production was “failed”.
